Measured values published in publication PMC12810918.

What was measured:
N=C(N)NCCC[C@H](N)C(=O)O = test: purified protein; conditions: 40 mM Hepes pH 7.0, 0-20 mM arginine
[1] = substrate: N=C(N)NCCC[C@H](N)C(=O)O; test: colorimetric determination of citrulline formation; assay type: biochemical, Giardia duodenalis; conditions: 40 mM Hepes pH 7.0, 0-20 mM arginine
Excerpt: colorimetric determination of citrulline formation on ADIB (recombinant ADI, assemblage B, isolate GS) | recombinantly expressed ADIAI, ADIAII and ADIB in bacteria and determined the Km values

Molecule	Km (N=C(N)NCCC[C@H](N)C(=O)O)	Km [1]	kcat [1]
ADIE (recombinant ADI, assemblage E, isolate P15) (Giardia lamblia P15)	0.34 ± 0.03 mM		
ADIB (recombinant ADI, assemblage B, isolate GS) (Giardia duodenalis ATCC 50581) (protein) MTDFTKDKEKLAQATQGGETERAEIVVVHLPQGTSFLTSLNPEGNLLEESMCPDELKRDHEGFQAILKEKGCRVYMPYDVLSEASPAEREVLMDQAMASLKYEFHPSGARITPKMKYCVSDEYKRKVLSALSNRNLVDVILSEPVIHLIPGVRNTALVTKSVEIHDSNNMVFMRDQQITTRRGVVMGQFQAPQRRREQVFALIFWKRLGVRVVGDCREGGPHCMLEGGDFIPASPGLTMMGVGLRSTYVGARYLMSKDLLGTRRFAVVKDCFDQHQDRMHLDCTCSIIHDKLVVLDEYICSGMGLRYVDEWIDIGAEAAKKAKSSAVICGTYALVKANVEFQQWLDENGYTIIRIPHEYQLAYGCNNLNLGNNCVLSVHQPTIDFIKASPAYISYCKSHNLSNGLDLVYVPFRGITRMYGSLHCASQVIYRTPATPATVKACEQEGDGLAAIYEKNGEPVDAAGKNFDCVLYIPSTVDDLVDSLGISLGDDVAPSREIIADVHKLYQKLISEGRVPYITWRMPSMPVVSLKGAARAGSLKAILDKIPQLPSFTPKVVDGAPAAYTRYLGLEQADICIDIS		0.36 ± 0.02 mM	1.99 ± 0.16 s⁻¹
